According to patent US6326464:

What was measured:
Assay in all cases: cell_activity
Conditions in all cases: H358 cells, 50 ng plasmid
[1] = target: wild-type p53 (Homo sapiens) (UniProt P04637)
[2] = tested on: V-336 (VP16-75-336-lz) (Homo sapiens / herpes simplex virus chimera)
[3] = tested on: V-325 (VP16-75-325-lz) (Homo sapiens / herpes simplex virus chimera)

Chain of wild-type p53 (Homo sapiens) (P04637 whole entry): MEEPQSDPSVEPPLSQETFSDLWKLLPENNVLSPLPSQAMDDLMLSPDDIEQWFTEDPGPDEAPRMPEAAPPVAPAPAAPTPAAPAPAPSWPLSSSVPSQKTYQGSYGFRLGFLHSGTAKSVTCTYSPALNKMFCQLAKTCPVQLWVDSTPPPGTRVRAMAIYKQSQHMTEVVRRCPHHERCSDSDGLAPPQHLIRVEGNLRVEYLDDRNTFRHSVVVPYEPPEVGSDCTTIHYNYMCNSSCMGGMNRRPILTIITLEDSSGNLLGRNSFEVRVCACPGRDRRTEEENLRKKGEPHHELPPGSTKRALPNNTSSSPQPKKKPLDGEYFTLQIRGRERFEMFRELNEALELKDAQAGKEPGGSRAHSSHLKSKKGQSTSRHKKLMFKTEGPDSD

p53RE consensus CAT reporter
activity (relative CAT activity (vector=1)) [1]: 6
activity (relative CAT activity (vector=1)) [2]: 16
activity (relative CAT activity (vector=1)) [3]: 25
